Measurements: article PMC5651819, “AtSPX1 affects the AtPHR1–DNA-binding equilibrium by binding monomeric AtPHR1 in solution” (Biochemical Journal, 2017)

Target: MBP-AtdPHR1 (Arabidopsis thaliana) (UniProt Q94CL7)
Assay: SPR
Settings: SPR (Biacore 3000, SA chip, ~500 RU DNA): 10 mM HEPES pH 7.5, 200 mM NaCl, 0.01% Surfactant P-20, 25 C, 40 ul/min, with or without Pi/InsP6

Chain of MBP-AtdPHR1 (Arabidopsis thaliana) (Q94CL7 208-362): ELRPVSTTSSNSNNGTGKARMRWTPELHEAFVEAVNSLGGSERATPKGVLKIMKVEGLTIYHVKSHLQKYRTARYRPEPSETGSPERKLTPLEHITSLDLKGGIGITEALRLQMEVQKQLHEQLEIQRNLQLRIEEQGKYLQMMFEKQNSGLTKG

“ACACTTCGTCACGCTAAAGCTAAGCATATCCGCTTTCATATTCCTTTACACAAC (double strand) [1x P1BS probe]” showed a Kd of 707 nM.
